Our source for the Km and kcat values is paper PMC5938747.

Usually Km stands for the substrate concentration at which the rate is half of its maximum. As usually defined, the kcat is the maximal rate divided by the concentration of active sites.

For the data set, the system named is Nc1ccn([C@@H]2O[C@H](COP(=O)(O)OP(=O)(O)O)[C@@H](O)[C@H]2O)c(=O)n1. As to the kind of experiment: purified protein. As to conditions: 10 mM ATP, MgCl2 4 mM excess, pH 8.0, 25 °C.

As for “Cj1415 (cytidine diphosphoramidate kinase, CDK) (Campylobacter jejuni subsp. jejuni NCTC 11168 = ATCC 700819)”, the Km is reported as 4.2 ± 0.7 mM and the turnover number (kcat) came to 0.64 ± 0.04 s⁻¹.
